T1: LukAB toxoid variant (LukA E323A), recombinant polyhistidine-tagged (S. aureus, UniProt Q2FFA2 28-351; P21224 30-338)
T1 sequence 1: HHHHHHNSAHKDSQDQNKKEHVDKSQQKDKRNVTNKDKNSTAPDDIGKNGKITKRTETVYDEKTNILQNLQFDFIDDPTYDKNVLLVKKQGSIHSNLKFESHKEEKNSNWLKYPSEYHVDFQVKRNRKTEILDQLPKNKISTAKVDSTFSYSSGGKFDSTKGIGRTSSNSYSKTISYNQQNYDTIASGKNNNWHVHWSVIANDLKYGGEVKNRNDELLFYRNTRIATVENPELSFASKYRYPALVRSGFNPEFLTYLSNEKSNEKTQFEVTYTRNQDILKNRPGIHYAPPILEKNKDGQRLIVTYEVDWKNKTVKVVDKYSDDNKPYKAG
T1 sequence 2: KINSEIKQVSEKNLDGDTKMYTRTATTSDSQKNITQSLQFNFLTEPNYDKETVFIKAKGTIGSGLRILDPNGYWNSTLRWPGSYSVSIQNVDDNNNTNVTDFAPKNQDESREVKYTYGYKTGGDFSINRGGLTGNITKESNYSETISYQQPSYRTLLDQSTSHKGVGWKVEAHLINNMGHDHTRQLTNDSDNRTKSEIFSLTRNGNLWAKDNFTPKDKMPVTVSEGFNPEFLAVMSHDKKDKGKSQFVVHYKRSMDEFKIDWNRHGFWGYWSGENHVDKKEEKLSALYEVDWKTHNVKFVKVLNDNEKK

B1: Luk1012 Hla binding FN3 domain, polyhistidine-tagged version (designed binder)
chain: LPAPKNLVVSRVTEDSARLSWTAPDAAFDSFFILYVEYSVNGEAIELSVPGSERSYDLTGLKPGTEYDVIIGGVKGGNHSKPLVAFFTT
B2: mAb 5133 PRASA A6 HC-L4-AB (Table 1 Construct 6) (bispecific antibody)
heavy: EVQLVETGGGLVKPGGSLRLSCSASRFSFRDYYMTWIRQAPGKGPEWVSHISGSGSTIYYADSVRGRFTISRDNAKSSLYLQMDSLQADDTAVYYCARGGRATSYYWVHWGPGTLVTVSSASTKGPSVFPLAPSSKSTSGGTAALGCLVKDYFPEPVTVSWNSGALTSGVHTFPAVLQSSGLYSLSSVVTVPSSSLGTQTYICNVNHKPSNTKVDKKVEPKSCDKTHTCPPCPAPPVAGPDVFLFPPKPKDTLMISRTPEVTCVVVDVSHEDPEVKFNWYVDGVEVHNAKTKPREEQYNSTYRVVSVLTVLHQDWLNGKEYKCKVSNAALPAPIAKTISKAKGQPREPQVYTLPPSRDELTKNQVSLTCLVKGFYPSDIAVEWESNGQPENNYKTTPPVLDSDGSFFLYSKLTVDKSRWQQGNVFSCSVMHEALHNRFTQKSLSLSPGKGGGGSGGGGSGGGGSGGGGSMLPAPKNLVVSRVTEDSARLSWTAPDAAFDSFWITYEEKFYRGEAIVLTVPGSERSYDLTGLKPGTEYKVWIVGVKGGQGSWPLSAIFTT
light: EIVLTQSPATLSLSPGERATLSCRASQSVSGYLGWYQQKPGQAPRLLIYGASSRATGIPDRFSGSGSGTDFTLTISRLEPEDFAVYYCQQYGSSPLTFGGGTKLEIKRTVAAPSVFIFPPSDEQLKSGTASVVCLLNNFYPREAKVQWKVDNALQSGNSQESVTEQDSKDSTYSLSSTLTLSKADYEKHKVYACEVTHQGLSSPVTKSFNRGEC
notes: also called CR5133 PRASA A6 HC-L4-AB
B3: 3×4 linker variant of Construct 11 (bispecific antibody)
heavy: EVQLVETGGGLVKPGGSLRLSCSASRFSFRDYYMTWIRQAPGKGPEWVSHISGSGSTIYYADSVRGRFTISRDNAKSSLYLQMDSLQADDTAVYYCARGGRATSYYWVHWGPGTLVTVSSASTKGPSVFPLAPSSKSTSGGTAALGCLVKDYFPEPVTVSWNSGALTSGVHTFPAVLQSSGLYSLSSVVTVPSSSLGTQTYICNVNHKPSNTKVDKKVEPKSCDKTHTCPPCPAPPVAGPDVFLFPPKPKDTLMISRTPEVTCVVVDVSHEDPEVKFNWYVDGVEVHNAKTKPREEQYNSTYRVVSVLTVLHQDWLNGKEYKCKVSNAALPAPIAKTISKAKGQPREPQVYTLPPSRDELTKNQVSLTCLVKGFYPSDIAVEWESNGQPENNYKTTPPVLDSDGSFFLYSKLTVDKSRWQQGNVFSCSVMHEALHNRFTQKSLSLSPGKGGGGSGGGGSGGGGSMLPAPKNLVVSRVTEDSARLSWTAPDAAFDSFHIEYAEPWVWGEAIVLTVPGSERSYDLTGLKPGTEYVVFIGGVKGGHNSTPLSAIFTTGGGGSGGGGSGGGGSGGGGSMLPAPKNLVVSRVTEDSARLSWTAPDAAFDSFWITYEEKFYRGEAIVLTVPGSERSYDLTGLKPGTEYKVWIVGVKGGQGSWPLSAIFTT
light: B2 light
B4: 3×3 linker variant of Construct 11 (bispecific antibody)
heavy: EVQLVETGGGLVKPGGSLRLSCSASRFSFRDYYMTWIRQAPGKGPEWVSHISGSGSTIYYADSVRGRFTISRDNAKSSLYLQMDSLQADDTAVYYCARGGRATSYYWVHWGPGTLVTVSSASTKGPSVFPLAPSSKSTSGGTAALGCLVKDYFPEPVTVSWNSGALTSGVHTFPAVLQSSGLYSLSSVVTVPSSSLGTQTYICNVNHKPSNTKVDKKVEPKSCDKTHTCPPCPAPPVAGPDVFLFPPKPKDTLMISRTPEVTCVVVDVSHEDPEVKFNWYVDGVEVHNAKTKPREEQYNSTYRVVSVLTVLHQDWLNGKEYKCKVSNAALPAPIAKTISKAKGQPREPQVYTLPPSRDELTKNQVSLTCLVKGFYPSDIAVEWESNGQPENNYKTTPPVLDSDGSFFLYSKLTVDKSRWQQGNVFSCSVMHEALHNRFTQKSLSLSPGKGGGGSGGGGSGGGGSMLPAPKNLVVSRVTEDSARLSWTAPDAAFDSFHIEYAEPWVWGEAIVLTVPGSERSYDLTGLKPGTEYVVFIGGVKGGHNSTPLSAIFTTGGGGSGGGGSGGGGSMLPAPKNLVVSRVTEDSARLSWTAPDAAFDSFWITYEEKFYRGEAIVLTVPGSERSYDLTGLKPGTEYKVWIVGVKGGQGSWPLSAIFTT
light: B2 light
B5: mAb 5133 PRASA A6 (CR5133 PRASA A6; Table 1 Construct 4) (antibody)
heavy: EVQLVETGGGLVKPGGSLRLSCSASRFSFRDYYMTWIRQAPGKGPEWVSHISGSGSTIYYADSVRGRFTISRDNAKSSLYLQMDSLQADDTAVYYCARGGRATSYYWVHWGPGTLVTVSSASTKGPSVFPLAPSSKSTSGGTAALGCLVKDYFPEPVTVSWNSGALTSGVHTFPAVLQSSGLYSLSSVVTVPSSSLGTQTYICNVNHKPSNTKVDKKVEPKSCDKTHTCPPCPAPPVAGPDVFLFPPKPKDTLMISRTPEVTCVVVDVSHEDPEVKFNWYVDGVEVHNAKTKPREEQYNSTYRVVSVLTVLHQDWLNGKEYKCKVSNAALPAPIAKTISKAKGQPREPQVYTLPPSRDELTKNQVSLTCLVKGFYPSDIAVEWESNGQPENNYKTTPPVLDSDGSFFLYSKLTVDKSRWQQGNVFSCSVMHEALHNRFTQKSLSLSPGK
light: B2 light
notes: no FN3 domains
B6: mAb 5133 PRASA A6 HC-L4-E (Table 1 Construct 15) (bispecific antibody)
heavy: EVQLVETGGGLVKPGGSLRLSCSASRFSFRDYYMTWIRQAPGKGPEWVSHISGSGSTIYYADSVRGRFTISRDNAKSSLYLQMDSLQADDTAVYYCARGGRATSYYWVHWGPGTLVTVSSASTKGPSVFPLAPSSKSTSGGTAALGCLVKDYFPEPVTVSWNSGALTSGVHTFPAVLQSSGLYSLSSVVTVPSSSLGTQTYICNVNHKPSNTKVDKKVEPKSCDKTHTCPPCPAPPVAGPDVFLFPPKPKDTLMISRTPEVTCVVVDVSHEDPEVKFNWYVDGVEVHNAKTKPREEQYNSTYRVVSVLTVLHQDWLNGKEYKCKVSNAALPAPIAKTISKAKGQPREPQVYTLPPSRDELTKNQVSLTCLVKGFYPSDIAVEWESNGQPENNYKTTPPVLDSDGSFFLYSKLTVDKSRWQQGNVFSCSVMHEALHNRFTQKSLSLSPGKGGGGSGGGGSGGGGSGGGGSMLPAPKNLVVSRVTEDSARLSWTAPDAAFDSFHIEYAEPWVWGEAIVLTVPGSERSYDLTGLKPGTEYVVFIGGVKGGHNSTPLSAIFTT
light: B2 light
notes: also called CR5133 PRASA A6 HC-L4-E
B7: Luk967 Hla binding FN3 domain, polyhistidine-tagged version (designed binder)
chain: LPAPKNLVVSRVTEDSARLSWEANAWDDVNFDSFLIQYQESEKVGEAIVLTVPGSERSYDLTGLKPGTEYTVSIYGVWNQTHYRWPSNPLSAIFTT
B8: Luk970 Hla binding FN3 domain, polyhistidine-tagged version (designed binder)
chain: LPAPKNLVVSRVTEDSARLSWNRGLIPFDSFLIQYQESEKVGEAIVLTVPGSERSYDLTGLKLGTEYTVSIYGVGTYYPWWPLSNPLSAIFTT
B9: Luk982 Hla binding FN3 domain, polyhistidine-tagged version (designed binder)
chain: LPAPKNLVVSRVTEDSARLSWTAPDAAFDSFAIGYPEYHDAGEAIHLFVPGSERSYDLTGLKPGTEYVVAIRGVKGGHASEPLHAHFTT
B10: Luk969 Hla binding FN3 domain, polyhistidine-tagged version (designed binder)
chain: LPAPKNLVVSRVTEDSARLSWNSEIAEQFFFDSFLIQYQESEKVGEAIVLTVPGSERSYDLTGLKPGTEYTVSIYGVWGHWDWYWKTSNPLSAIFTT

Assays:
[1] = target: T2, Human serum albumin conjugated with biotin (Rockland 009-0633) (human, UniProt P02768 25-609); assay: ELISA, biotinylated HSA on streptavidin plate
T2 construct: also called HSA

[2] = target: T1, LukAB toxoid variant (LukA E323A), …; assay: SPR (Biacore T200), single cycle kinetics, 1:1 model
[3] = target: T1, LukAB toxoid variant (LukA E323A), …; assay: ELISA, biotinylated toxin on streptavidin plate
[4] = target: T1, LukAB toxoid variant (LukA E323A), …; assay: SPR (Biacore T200), construct captured via anti-human Fc, LukAB as analyte

T2 sequence (P02768 25-609 limits assumed): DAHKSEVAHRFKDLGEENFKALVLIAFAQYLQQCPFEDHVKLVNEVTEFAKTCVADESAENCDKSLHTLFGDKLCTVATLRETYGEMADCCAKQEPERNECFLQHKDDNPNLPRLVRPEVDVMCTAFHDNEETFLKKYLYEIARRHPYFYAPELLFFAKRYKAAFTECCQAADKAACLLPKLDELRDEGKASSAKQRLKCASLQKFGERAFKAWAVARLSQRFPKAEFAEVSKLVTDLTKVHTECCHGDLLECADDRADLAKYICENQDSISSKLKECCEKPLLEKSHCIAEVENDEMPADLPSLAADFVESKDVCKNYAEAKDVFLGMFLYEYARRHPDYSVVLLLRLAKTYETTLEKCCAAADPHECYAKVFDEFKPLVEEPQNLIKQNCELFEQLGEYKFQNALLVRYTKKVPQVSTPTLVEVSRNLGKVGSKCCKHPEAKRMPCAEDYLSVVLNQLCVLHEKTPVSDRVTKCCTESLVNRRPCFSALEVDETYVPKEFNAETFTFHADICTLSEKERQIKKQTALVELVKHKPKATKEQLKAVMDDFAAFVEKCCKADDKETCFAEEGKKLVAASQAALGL

Binder	binding result [1]	also measured
B1	no binding (tested: 1 µM)	
B2		Kd [2]: 0.07 nM
B3		binding result [3]: binds
B4		binding result [3]: binds
B5		binding result [4]: no binding (tested: 100 nM)
B6		binding result [4]: no binding (tested: 100 nM)
B7	no binding (tested: 1 µM)	
B8	no binding (tested: 1 µM)	
B9	no binding (tested: 1 µM)	
B10	no binding (tested: 1 µM)	
